# Laboratory results from patent US20210070811A1 (BOARD OF TRUSTEES OF MICHIGAN STATE UNIVERSITY, published 2021).
# B1: PilA19 (truncated PilA pilin peptide of Geobacter sulfurreducens lacking the first 19 N-terminal amino acids of the mature PilA) (peptide)
# peptide: AIPQFSAYRVKAYNSAASSDLRNLKTALESAFADDQTYPPES
# notes: Recombinant peptide made in E. coli as a CBD-intein fusion and released by DTT-induced intein splicing; 42 residues; It self-assembles into a fibre; also called PilA19 peptide; recombinant PilA19
# Molecular target: the molecule itself
# Experiment: circular dichroism of PilA19 with SDS at pH 3.8; 222 nm/208 nm intensity ratio of 1
protein,measurement,value
B1,binding result,binds
